{
  "source": "IntAct's records for PubMed 21057455",
  "parents": {"B1": {"name": "Mediator of RNA polymerase II transcription subunit 13 (Saccharomyces cerevisiae), P38931 (parent)", "chain": "MSSDASTYRLEDVLSSFYRVEKIKKINYHQYISKAQNDQWSIQMEFMLRKQDPKTLVALLSRDLWCFSINDDPVPTPPAIEHKPVSPDKIGTFTADYSKPNLPPHYALFLKALRRKIYINLALGSHNKLIQFGNACISLSGVPNYLVQLEPHLFVNGDLTVSLCAKNMGLVPMKEENLEESFLSKHALYLAPSGIRMHLAPASKQGYLITPPKHTELLLTTLSVSHGINLQNKKNLKWVAVVPDLGHLNGHTPTIASYLTPLLEAKKLVWPLHLIFAQPVADIENSTSGDPSEFHCLQDALDAIDDFIQLKQTAAYRTPGSSGVLSSNIAGTNPLSSDGAYTEQFQHYKNNSISSQPASYHSVQETNKISPKDFSPNFTGIDKLMLSPSDQFAPAFLNTPNNNINENELFNDRKQTTVSNDLENSPLKTELEANGRSLEKVNNSVSKTGSVDTLHNKEGTLEQREQNENLPSDKSDSMVDKELFGEDEDEDLFGDSNKSNSTNESNKSISDEITEDMFEMSDEEENNNNKSINKNNKEMHTDLGKDIPFFPSSEKPNIRTMSGTTKRLNGKRKYLDIPIDEMTLPTSPLYMDPGAPLPVETPRDRRKSVFAPLNFNPIIENNVDNKYKSGGKFSFSPLQKEEALNFDISMADLSSSEEEEDEEENGSSDEDLKSLNVRDDMKPSDNISTNTNIHEPQYINYSSIPSLQDSIIKQENFNSVNDANITSNKEGFNSIWKIPQNDIPQTESPLKTVDSSIQPIESNIKMTLEDNNVTSNPSEFTPNMVNSEISNLPKDKSGIPEFTPADPNLSFESSSSLPFLLRHMPLASIPDIFITPTPVVTISEKEQDILDLIAEQVVTDYNILGNLGIPKIAYRGVKDCQEGLITTTMLQLFSTFDRLNGNDTISKFYNMKQPYVFVKKHHELIKVKHDSQPFIKFLNFRPPNGIKNFKSLLLSSSFKEDCLSFAPTLSQTYINQELGFCELLKLTNEDPPGLMYLKAFDKNKLLLLAAQIVSYCSNNKNSIKNVPPILIILPLDNATLTELVDKANIFQVIKNEVCAKMPNIELYLKVIPMDFIRNVLVTVDQYVNVAISIYNMLPPKSVKFTHIAHTLPEKVNFRTMQQQQMQQQQQQQQQQQNNSTGSSSIIYYDSYIHLAYSRSVDKEWVFAALSDSYGQGSMTKTWYVGNSRGKFDDACNQIWNIALNLASKKFGKICLILTRLNGILPDDELMNWRRLSGRNIHLAVVCVDDNSKISFIDEDKLYPSFKPIYKDTRFGGRMDMTRLYDYEIRDIDQDIHGIVFQHPFPLAHSQHRCAIRSGALIKFKKCDGDTVWDKFAVNLLNCPHSDSTQLLETILEEFRNLAALNVWYGLSDGEDGHIPWHILAVKKMMNTLVHTRVKIANTSAATVHTATSSSIILSDK", "partner": "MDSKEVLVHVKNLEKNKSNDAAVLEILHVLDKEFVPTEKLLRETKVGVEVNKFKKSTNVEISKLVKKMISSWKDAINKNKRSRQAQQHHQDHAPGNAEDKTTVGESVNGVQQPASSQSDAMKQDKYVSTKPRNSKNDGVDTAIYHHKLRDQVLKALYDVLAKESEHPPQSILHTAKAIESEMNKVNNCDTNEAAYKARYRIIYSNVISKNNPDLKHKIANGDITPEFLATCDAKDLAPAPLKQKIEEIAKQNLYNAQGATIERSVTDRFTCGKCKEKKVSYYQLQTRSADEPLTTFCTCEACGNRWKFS"}, "B2": {"name": "SAGA complex subunit SPT8 (Saccharomyces cerevisiae), P38915 (parent)", "chain": "MDEVDDILINNQVVDDEEDDEEMLSGLENDSKQDLEGNDDGGEDEEDDDDDDEDDDDDEDEREDDDEQEDDDGEDDAARMDKTATPTNEHQHDEQKAAAAGAGGAGDSGDAVTKIGSEDVKLSDVDGGVGSREASSSTHEASANGEVYEYYKHMLNAAQIADSYNIYPTAAIPIQTHVNALAVSRGLKYLFLGGSDGYIRKYDLLNTLEGKLSLTILQKHSLAESIQNAGILQSYWENEIPQKKSEMKLSANKTDYEPKVSPVHSLEVQSECLFILSGLQNGGITMQGVRYMEGSIAHYFKGRNGHTQIVNILRLNGQEDRFLSGSWDKRLLEWDLQTGDIVNEFKKSRSELSSLEMRPLYSSVDVSGNVNSGKENENADDDMDSLFGDEDEDEKQDAGNEPVETGDGSNGEENKEQISEESLNIVYDESVFMTSGLNGSVHIWDRRMTQSPALSLERGAGVPPWCLSACWGVDGDHVYAGRRNACVEQFDLKMPSKPIHNLKLPSISGPVSCVKAMPNNKHLLCASRDNIRLYNVEIAVDASNSTTKSSKVPFLIVPGHHGGIISNLYLDPTSRFIISTSGNRGWQGNSTDTTLIYDIDLE", "partner": "B1 partner"}, "B3": {"name": "Transcription elongation factor SPT6 (Saccharomyces cerevisiae), P23615 (parent)", "chain": "MEETGDSKLVPRDEEEIVNDNDETKAPSEEEEGEDVFDSSEEDEDIDEDEDEARKVQEGFIVNDDDENEDPGTSISKKRRKHKRREREEDDRLSEDDLDLLMENAGVERTKASSSSGKFKRLKRVGDEGNAAESESDNVAASRQDSTSKLEDFFSEDEEEEESGLRNGRNNEYGRDEEDHENRNRTADKGGILDELDDFIEDDEFSDEDDETRQRRIQEKKLLREQSIKQPTQITGLSSDKIDEMYDIFGDGHDYDWALEIENEELENGNDNNEAEEEEIDEETGAIKSTKKKISLQDIYDLEDLKKNLMTEGDMKIRKTDIPERYQELRAGITDYGNMSSEDQELERNWIAEKISVDKNFDANYDLTEFKEAIGNAIKFITKENLEVPFIYAYRRNYISSREKDGFLLTEDDLWDIVSLDIEFHSLVNKKDYVQRFYAELHIDDPIVTEYFKNQNTASIAELNSLQDIYDYLEFKYANEINEMFINHTGKTGKKHLKNSSYEKFKASPLYQAVSDIGISAEDVGENISSQHQIHPPVDHPSSKPVEVIESILNANSGDLQVFTSNTKLAIDTVQKYYSLELSKNTKIREKVRSDFSKYYLADVVLTAKGKKEIQKGSLYEDIKYAINRTPMHFRRDPDVFLKMVEAESLNLLSVKLHMSSQAQYIEHLFQIALETTNTSDIAIEWNNFRKLAFNQAMDKIFQDISQEVKDNLTKNCQKLVAKTVRHKFMTKLDQAPFIPNVRDPKIPKILSLTCGQGRFGADAIIAVYVNRKGDFIRDYKIVDNPFDKTNPEKFEDTLDNIIQSCQPNAIGINGPNPKTQKFYKRLQEVLHKKQIVDSRGHTIPIIYVEDEVAIRYQNSERAAQEFPNKPPLVKYCIALARYMHSPLLEYANLTSEEVRSLSIHPHQNLLSSEQLSWALETAFVDIVNLVSVEVNKATDNNYYASALKYISGFGKRKAIDFLQSLQRLNEPLLARQQLITHNILHKTIFMNSAGFLYISWNEKRQKYEDLEHDQLDSTRIHPEDYHLATKVAADALEYDPDTIAEKEEQGTMSEFIELLREDPDRRAKLESLNLESYAEELEKNTGLRKLNNLNTIVLELLDGFEELRNDFHPLQGDEIFQSLTGESEKTFFKGSIIPVRVERFWHNDIICTTNSEVECVVNAQRHAGAQLRRPANEIYEIGKTYPAKVIYIDYANITAEVSLLDHDVKQQYVPISYSKDPSIWDLKQELEDAEEERKLMMAEARAKRTHRVINHPYYFPFNGRQAEDYLRSKERGEFVIRQSSRGDDHLVITWKLDKDLFQHIDIQELEKENPLALGKVLIVDNQKYNDLDQIIVEYLQNKVRLLNEMTSSEKFKSGTKKDVVKFIEDYSRVNPNKSVYYFSLNHDNPGWFYLMFKINANSKLYTWNVKLTNTGYFLVNYNYPSVIQLCNGFKTLLKSNSSKNRMNNYR", "partner": "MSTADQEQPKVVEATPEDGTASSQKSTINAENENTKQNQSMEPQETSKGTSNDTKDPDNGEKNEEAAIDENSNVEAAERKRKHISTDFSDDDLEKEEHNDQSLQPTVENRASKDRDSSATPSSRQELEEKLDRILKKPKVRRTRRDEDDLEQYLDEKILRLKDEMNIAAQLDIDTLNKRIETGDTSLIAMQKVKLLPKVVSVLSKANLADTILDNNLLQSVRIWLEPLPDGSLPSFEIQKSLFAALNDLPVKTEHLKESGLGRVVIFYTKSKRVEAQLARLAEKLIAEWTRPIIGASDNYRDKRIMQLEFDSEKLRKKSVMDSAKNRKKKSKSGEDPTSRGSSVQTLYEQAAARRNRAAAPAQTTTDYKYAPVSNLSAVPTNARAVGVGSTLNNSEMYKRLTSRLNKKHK"}},
  "data": [
    {"variants_of": "B1", "conditions": "with tfs2_yeast DST1, P07273", "values": [
      {"variant": "F484A", "effect of a mutation on the interaction": "decreasing interaction"},
      {"variant": "L483A", "effect of a mutation on the interaction": "decreasing interaction"}
    ]},
    {"variants_of": "B2", "conditions": "with tfs2_yeast DST1, P07273", "values": [
      {"variant": "L386A", "effect of a mutation on the interaction": "disrupting interaction"},
      {"variant": "F387A", "effect of a mutation on the interaction": "disrupting interaction"}
    ]},
    {"variants_of": "B3", "conditions": "with iws1_yeast SPN1, Q06505", "values": [
      {"variant": "F249A", "effect of a mutation on the interaction": "disrupting interaction"},
      {"variant": "I248A", "effect of a mutation on the interaction": "disrupting interaction"}
    ]}
  ]
}
